From patent US20200040101A1
Several values for one entry are separate records, joined by “and”; a condition that tells them apart may be missing. Equal values may be shown once.

Key:
[1] = biological target: human Claudin 18.2 (CLDN18.2) expressed on cells (human) (UniProt P56856); assay: cell-based or functional assay
[2] = biological target: T1, CLDN 7 expressed on HEK 293 cells (UniProt O95471); assay: FACS, transfected HEK 293 cells
T1 sequence (looked up): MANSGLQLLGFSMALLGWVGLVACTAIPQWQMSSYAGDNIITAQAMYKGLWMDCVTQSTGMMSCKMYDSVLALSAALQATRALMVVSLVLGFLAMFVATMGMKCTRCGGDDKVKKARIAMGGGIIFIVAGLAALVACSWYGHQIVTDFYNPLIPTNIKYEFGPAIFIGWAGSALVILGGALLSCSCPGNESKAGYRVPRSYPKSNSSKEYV

Claudin-10 = biological target: T2, Claudin-10; assay: FACS, transfected HEK 293 cells
T2 sequence (P78369 1-228, species assumed, looked up): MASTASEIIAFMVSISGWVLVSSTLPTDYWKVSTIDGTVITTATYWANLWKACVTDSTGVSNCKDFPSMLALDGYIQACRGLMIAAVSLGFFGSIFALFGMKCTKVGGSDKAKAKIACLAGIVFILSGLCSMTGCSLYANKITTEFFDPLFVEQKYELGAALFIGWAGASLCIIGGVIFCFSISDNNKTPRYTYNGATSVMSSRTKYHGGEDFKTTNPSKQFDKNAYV

Claudin-11 = biological target: T3, Claudin-11; assay: FACS, transfected HEK 293 cells
T3 sequence (O75508 whole entry, species assumed, looked up): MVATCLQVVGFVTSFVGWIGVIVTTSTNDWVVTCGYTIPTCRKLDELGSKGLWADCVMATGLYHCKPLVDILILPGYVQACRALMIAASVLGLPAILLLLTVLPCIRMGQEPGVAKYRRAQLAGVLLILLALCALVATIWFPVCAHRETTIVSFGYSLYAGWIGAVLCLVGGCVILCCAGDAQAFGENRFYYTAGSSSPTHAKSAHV

Claudin-12 = assay: FACS, transfected HEK 293 cells
Claudin-14 = assay: FACS, transfected HEK 293 cells
Claudin-16 = biological target: T4, Claudin-16; assay: FACS, transfected HEK 293 cells
T4 sequence (Q9Y5I7 1-235, species assumed, looked up): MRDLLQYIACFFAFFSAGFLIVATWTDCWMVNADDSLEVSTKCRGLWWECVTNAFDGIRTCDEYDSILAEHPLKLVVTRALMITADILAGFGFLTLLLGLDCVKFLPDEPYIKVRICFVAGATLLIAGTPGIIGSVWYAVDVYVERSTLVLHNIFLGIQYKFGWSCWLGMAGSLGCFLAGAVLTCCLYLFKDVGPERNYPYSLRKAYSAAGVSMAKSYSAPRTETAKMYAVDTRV

Claudin-17 = biological target: T5, Claudin-17; assay: FACS, transfected HEK 293 cells
T5 sequence (P56750 whole entry, species assumed, looked up): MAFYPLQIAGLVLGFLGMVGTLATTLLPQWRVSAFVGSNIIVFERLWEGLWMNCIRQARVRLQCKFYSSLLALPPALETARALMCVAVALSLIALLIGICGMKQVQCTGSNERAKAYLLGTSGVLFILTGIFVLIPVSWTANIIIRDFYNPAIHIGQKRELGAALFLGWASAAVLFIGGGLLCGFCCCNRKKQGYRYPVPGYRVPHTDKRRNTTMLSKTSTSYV

Claudin-19 = biological target: T6, Claudin-19; assay: FACS, transfected HEK 293 cells
T6 sequence (Q8N6F1 whole entry, species assumed, looked up): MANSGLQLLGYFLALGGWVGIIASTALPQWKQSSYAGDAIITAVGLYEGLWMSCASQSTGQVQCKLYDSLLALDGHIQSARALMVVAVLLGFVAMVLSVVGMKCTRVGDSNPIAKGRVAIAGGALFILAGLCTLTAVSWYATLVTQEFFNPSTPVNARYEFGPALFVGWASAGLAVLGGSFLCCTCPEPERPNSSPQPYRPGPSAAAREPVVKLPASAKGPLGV

Claudin-1 = assay: FACS, transfected HEK 293 cells
Claudin-22 = assay: FACS, transfected HEK 293 cells
Claudin-23 = biological target: T7, Claudin-23; assay: FACS, transfected HEK 293 cells
T7 sequence (Q96B33 1-292, species assumed, looked up): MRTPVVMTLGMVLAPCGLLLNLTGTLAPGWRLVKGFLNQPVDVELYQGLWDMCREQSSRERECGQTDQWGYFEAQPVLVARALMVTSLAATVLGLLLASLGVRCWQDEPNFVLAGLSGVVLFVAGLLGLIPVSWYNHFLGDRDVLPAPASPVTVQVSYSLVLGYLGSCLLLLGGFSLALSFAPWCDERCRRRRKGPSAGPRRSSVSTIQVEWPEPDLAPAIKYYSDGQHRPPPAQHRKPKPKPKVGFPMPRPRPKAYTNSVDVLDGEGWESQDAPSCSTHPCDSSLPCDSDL

Claudin-2 = biological target: T8, Claudin-2; assay: FACS, transfected HEK 293 cells
T8 sequence (P57739 whole entry, species assumed, looked up): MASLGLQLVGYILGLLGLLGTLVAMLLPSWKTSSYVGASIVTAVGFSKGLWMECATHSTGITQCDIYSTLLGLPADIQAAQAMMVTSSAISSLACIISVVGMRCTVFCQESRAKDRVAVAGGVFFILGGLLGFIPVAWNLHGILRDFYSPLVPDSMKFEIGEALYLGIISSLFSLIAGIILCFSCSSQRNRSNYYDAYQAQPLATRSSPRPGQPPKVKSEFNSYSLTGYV

Claudin-34 = assay: FACS, transfected HEK 293 cells
Claudin-3 = assay: FACS, transfected HEK 293 cells
Claudin-4 = assay: FACS, transfected HEK 293 cells
Claudin-5 = biological target: T9, Claudin-5; assay: FACS, transfected HEK 293 cells
T9 sequence (O00501 whole entry, species assumed, looked up): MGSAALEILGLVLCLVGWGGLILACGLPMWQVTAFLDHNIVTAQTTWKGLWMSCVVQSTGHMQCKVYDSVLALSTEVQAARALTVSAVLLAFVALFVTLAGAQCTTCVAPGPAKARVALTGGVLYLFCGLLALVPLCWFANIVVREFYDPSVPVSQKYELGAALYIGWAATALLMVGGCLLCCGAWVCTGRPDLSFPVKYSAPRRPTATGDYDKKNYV

Claudin-8 = assay: FACS, transfected HEK 293 cells
Claudin-9 = assay: FACS, transfected HEK 293 cells
[3] = biological target: human Claudin 18.2 (CLDN18.2) expressed on cells (human) (UniProt P56856); assay: FACS, purified antibody on HEK 293 cells expressing CLDN18.2
[4] = biological target: human Claudin 18.2 (CLDN18.2) expressed on cells (human) (UniProt P56856); assay: FACS, transfected HEK 293 cells, first 18.2 column
[5] = biological target: human Claudin 18.2 (CLDN18.2) expressed on cells (human) (UniProt P56856); assay: FACS, transfected HEK 293 cells, second 18.2 column
[6] = biological target: purified CLDN18.2 protein (CLDN18.2 ligand) (human) (UniProt P56856); assay: Octet (ForteBio), antibody on anti-human IgG capture sensor, CLDN18.2 ligand in solution, 1:1 fit
[7] = biological target: purified CLDN18.2 protein (CLDN18.2 ligand) (human) (UniProt P56856); assay: BLI (ForteBio Octet RED 96), antibody on anti-human IgG capture sensor, CLDN18.2 ligand in solution, 1:1 fit
[8] = biological target: purified CLDN18.2 protein (CLDN18.2 ligand) (human) (UniProt P56856); assay: Octet (ForteBio), antibody on anti-human IgG capture sensor, CLDN18.2 ligand in solution, 1:1 fit; kdis(1/s)
[9] = biological target: CLDN18.1 expressed on HEK 293 cells (UniProt P56856); assay: FACS, transfected HEK293 cells, 10 ug/ml; HEK293 alone 14.2
[10] = biological target: human Claudin 18.2 (CLDN18.2) expressed on cells (human) (UniProt P56856); assay: as above
mouse-18.1 (mouse) = mouse-18.1 (mouse) (UniProt P56857); assay: as above
mouse-18.2 (mouse) = mouse-18.2 (mouse) (UniProt P56857); assay: as above
[11] = biological target: human Claudin 18.2 (CLDN18.2) expressed on cells (human) (UniProt P56856); assay: FACS, purified chimeric antibody on HEK 293 cells expressing CLDN18.2
[12] = biological target: CLDN18.1 expressed on HEK 293 cells (UniProt P56856); assay: FACS, hybridoma supernatant on HEK 293 cells expressing CLDN 18.1

Sequence of mouse-18.2 (mouse) (P56857 other isoform, or with tags, fused parts or gaps): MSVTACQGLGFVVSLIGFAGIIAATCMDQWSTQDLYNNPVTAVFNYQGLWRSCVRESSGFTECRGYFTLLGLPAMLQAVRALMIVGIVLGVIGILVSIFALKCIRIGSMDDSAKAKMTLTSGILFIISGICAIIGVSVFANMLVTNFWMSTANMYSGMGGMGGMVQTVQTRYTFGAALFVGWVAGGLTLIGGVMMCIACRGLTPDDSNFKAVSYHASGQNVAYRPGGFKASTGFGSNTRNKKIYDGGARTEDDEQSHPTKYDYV
Sequence of mouse-18.1 (mouse) (P56857 whole entry): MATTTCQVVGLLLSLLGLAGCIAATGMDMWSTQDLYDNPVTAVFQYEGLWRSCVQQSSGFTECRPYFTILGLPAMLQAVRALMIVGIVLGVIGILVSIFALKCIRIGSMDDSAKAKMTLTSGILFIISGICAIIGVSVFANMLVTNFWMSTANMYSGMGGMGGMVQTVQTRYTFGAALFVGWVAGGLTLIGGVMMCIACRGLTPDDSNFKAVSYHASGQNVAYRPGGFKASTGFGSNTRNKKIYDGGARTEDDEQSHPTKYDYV

B1: Internal Reference (reference antibody with the heavy and light chain sequences of Zolbetuximab) (antibody, INN chains, looked up, V domains shown)
VH: QVQLQQPGAELVRPGASVKLSCKASGYTFTSYWINWVKQRPGQGLEWIGNIYPSDSYTNYNQKFKDKATLTVDKSSSTAYMQLSSPTSEDSAVYYCTRSWRGNSFDYWGQGTTLTVSS
VL: DIVMTQSPSSLTVTAGEKVTMSCKSSQSLLNSGNQKNYLTWYQQKPGQPPKLLIYWASTRESGVPDRFTGSGSGTDFTLTISSVQAEDLAVYYCQNDYSYPFTFGSGTKLEIKR
ADCC NUGC4 Cells [1]: 610 ng/mL | ADCC with 293 cells expressing Claudin 18.2 [1]: 0.014 nM and 0.006 nM | MFI [2]: 21.4 | MFI (Claudin-10): 20.8 | MFI (Claudin-11): 19.3 | MFI (Claudin-12): 21.4 | MFI (Claudin-14): 21.2 | MFI (Claudin-16): 19.5 | MFI (Claudin-17): 19.6 | MFI (Claudin-19): 18.1 | MFI (Claudin-1): 20.9 | MFI (Claudin-22): 19.9 | MFI (Claudin-23): 19.8 | MFI (Claudin-2): 19.7 | MFI (Claudin-34): 21.1 | MFI (Claudin-3): 20.8 | MFI (Claudin-4): 18.7 | MFI (Claudin-5): 18.4 | MFI (Claudin-8): 20.4 | MFI (Claudin-9): 20.4 | EC50 [3]: 1.17 nM | FACS Signal MFI (×1000) [3]: 25000 MFI | MFI [4]: 4040 | MFI [5]: 3880 | Kd [6]: 86.9 nM | kon [6]: 1600 M⁻¹ s⁻¹ | Kd [7]: 89 nM and 71 nM | koff [8]: 0.000139 s⁻¹

B2: Clone # 46 (purified chimeric rabbit/human antibody) (antibody, V domains shown)
VH: QQQLVESGGGLVKPGGTLTLTCTVSGFYFNRGYWICWVRQAPGKGLEWIGCIDTGSGVPYYANWAKGRFTISKTSSTAVTLQMTSLTAADTATYFCARNSDSIYFNLWGPGTLVTVSS
VL: DIVMTQTPASVSEPVGGTVTIKCQASQSIGGYLSWYQQKPGQPPKLLIYKASTLASGVPSRFKGSGSGTDFTLTISDLECADAATYYCQNYAGVSIYGAVFGGGTKVVVVR
ADCC NUGC4 Cells [1]: 70 ng/mL | ADCC with 293 cells expressing Claudin 18.2 [1]: 0.015 nM | MFI [9]: 19.4 | MFI [10]: 553 | MFI (mouse-18.1 (mouse)): 18.9 | MFI (mouse-18.2 (mouse)): 3490 | EC50 [11]: 0.619 nM | FACS Signal MFI (×1000) [11]: 55000 MFI | Kd [6]: 12.5 nM | kon [6]: 2320 M⁻¹ s⁻¹ | Kd [7]: 12 nM | koff [8]: 2.9e-05 s⁻¹

B3: 11E12 (mouse hybridoma subclone antibody) (antibody, V domains shown)
VH: QVQLQQSGAELARPGASVKLSCKASGYTFTSYVINWVKQKTGQGLEWIGEIHPRGGNTYYSEKFRGRATLTADKSSSTAYMEFRSLTSEDSAVYFCAILRRGNAMDYWDQGTAVTVSS
VL: DIVMTQSPSSLPVTAGEMVTMSCKSSQSLLNSGNQRNYLTWYQQKPGQPPKLLIYWASTRESGVPDRFTGSGSGTDFTLTISSVQAEDLAVYYCQNSYNYPYTFGGGTKLERK
MFI [12]: 30
